Laboratory results taken from US20080248994A1 (GOVERNMENT OF THE UNITED STATES OF AMERICA AS REPRESENTED …, published 2008).

T1: hypophosphorylated pRb (endogenous, differentiated C2C12 myotubes, DM) (mouse, UniProt P13405 2-921, hypophosphorylated (sites not given))
T1 construct: Endogenous protein in extracts of cells kept in differentiation medium for 36 hr
T1 sequence (looked up): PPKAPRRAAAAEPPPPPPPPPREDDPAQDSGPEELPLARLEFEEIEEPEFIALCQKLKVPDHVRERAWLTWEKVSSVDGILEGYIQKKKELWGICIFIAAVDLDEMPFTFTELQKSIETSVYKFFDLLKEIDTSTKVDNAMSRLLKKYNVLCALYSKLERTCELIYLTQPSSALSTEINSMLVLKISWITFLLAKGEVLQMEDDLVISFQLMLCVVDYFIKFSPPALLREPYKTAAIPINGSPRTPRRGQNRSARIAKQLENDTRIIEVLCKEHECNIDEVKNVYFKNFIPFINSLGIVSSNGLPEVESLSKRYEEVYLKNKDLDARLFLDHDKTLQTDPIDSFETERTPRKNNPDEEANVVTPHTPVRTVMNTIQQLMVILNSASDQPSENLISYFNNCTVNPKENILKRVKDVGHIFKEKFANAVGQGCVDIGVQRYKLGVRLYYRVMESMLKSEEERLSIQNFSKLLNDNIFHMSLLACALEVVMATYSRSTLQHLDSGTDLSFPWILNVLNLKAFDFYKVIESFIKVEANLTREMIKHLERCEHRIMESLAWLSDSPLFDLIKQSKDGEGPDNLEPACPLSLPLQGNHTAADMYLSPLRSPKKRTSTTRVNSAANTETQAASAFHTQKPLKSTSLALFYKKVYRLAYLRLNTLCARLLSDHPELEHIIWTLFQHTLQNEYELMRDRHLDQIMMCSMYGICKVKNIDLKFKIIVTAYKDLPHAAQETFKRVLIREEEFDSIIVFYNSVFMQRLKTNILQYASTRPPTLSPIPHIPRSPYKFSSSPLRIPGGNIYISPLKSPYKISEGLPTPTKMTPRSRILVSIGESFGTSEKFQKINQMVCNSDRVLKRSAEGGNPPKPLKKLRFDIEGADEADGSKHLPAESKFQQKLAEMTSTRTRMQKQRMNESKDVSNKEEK

T2: hyperphosphorylated pRb (endogenous, proliferating C2C12 myoblasts, GM) (mouse, UniProt P13405 2-921, hyperphosphorylated (sites not given))
T2 construct: Endogenous protein in extracts of cells kept in growth medium
T2 sequence (looked up): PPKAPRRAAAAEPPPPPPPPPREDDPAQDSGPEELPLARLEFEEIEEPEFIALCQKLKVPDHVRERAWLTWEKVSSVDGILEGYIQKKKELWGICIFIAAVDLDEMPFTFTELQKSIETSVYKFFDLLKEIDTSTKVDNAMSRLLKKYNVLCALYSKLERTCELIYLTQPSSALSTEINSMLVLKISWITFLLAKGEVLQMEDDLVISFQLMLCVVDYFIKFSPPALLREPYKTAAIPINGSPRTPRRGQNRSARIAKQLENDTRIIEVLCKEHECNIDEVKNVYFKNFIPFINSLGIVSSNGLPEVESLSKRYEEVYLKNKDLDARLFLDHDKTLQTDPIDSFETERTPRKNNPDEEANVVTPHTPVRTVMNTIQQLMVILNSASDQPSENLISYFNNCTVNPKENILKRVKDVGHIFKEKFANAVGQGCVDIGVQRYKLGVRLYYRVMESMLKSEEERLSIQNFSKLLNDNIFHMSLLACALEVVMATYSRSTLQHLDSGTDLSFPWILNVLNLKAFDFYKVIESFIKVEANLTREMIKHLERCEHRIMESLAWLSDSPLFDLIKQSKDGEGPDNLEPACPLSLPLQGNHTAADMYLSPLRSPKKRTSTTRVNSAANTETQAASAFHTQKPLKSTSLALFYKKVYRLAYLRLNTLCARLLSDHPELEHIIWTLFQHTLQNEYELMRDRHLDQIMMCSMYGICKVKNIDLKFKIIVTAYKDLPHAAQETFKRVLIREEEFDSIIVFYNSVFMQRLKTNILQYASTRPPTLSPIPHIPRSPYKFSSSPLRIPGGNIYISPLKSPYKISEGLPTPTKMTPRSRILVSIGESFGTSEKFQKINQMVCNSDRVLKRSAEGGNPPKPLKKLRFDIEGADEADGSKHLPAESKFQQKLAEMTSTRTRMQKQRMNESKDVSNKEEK

T3: GST-pRb wt (UniProt P06400 379-928, limits assumed)
T3 construct: Expressed in bacteria; the whole protein is named here; also called GST-Rb (WT); GST-RB (WT); not shown: GST tag
T3 sequence (looked up): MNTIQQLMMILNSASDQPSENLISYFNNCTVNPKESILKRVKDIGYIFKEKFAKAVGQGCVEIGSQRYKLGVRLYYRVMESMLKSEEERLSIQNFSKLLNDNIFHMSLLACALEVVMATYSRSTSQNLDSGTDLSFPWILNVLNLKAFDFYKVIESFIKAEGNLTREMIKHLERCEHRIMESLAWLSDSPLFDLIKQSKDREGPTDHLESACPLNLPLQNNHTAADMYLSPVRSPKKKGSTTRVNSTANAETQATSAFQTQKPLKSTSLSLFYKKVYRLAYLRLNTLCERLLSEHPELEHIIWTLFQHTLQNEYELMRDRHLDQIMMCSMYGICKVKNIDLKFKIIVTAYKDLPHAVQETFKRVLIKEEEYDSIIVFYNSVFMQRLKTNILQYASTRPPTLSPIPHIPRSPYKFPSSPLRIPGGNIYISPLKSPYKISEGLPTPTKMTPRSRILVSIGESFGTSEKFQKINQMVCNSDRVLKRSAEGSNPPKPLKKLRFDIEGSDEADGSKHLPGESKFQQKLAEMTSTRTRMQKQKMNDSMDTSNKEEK


Legend:
[1] = biological target: T1, hypophosphorylated pRb (endogenous, …); experiment: co-immunoprecipitation from C2C12 myotube extracts, Western blot
[2] = biological target: T2, hyperphosphorylated pRb (endogenous, …); experiment: co-immunoprecipitation from C2C12 myoblast extracts, Western blot
GST-pRb wt = biological target: T3, GST-pRb wt; experiment: GST pull-down from extracts of transfected pRb-/- 3T3 cells, Western blot (data not shown)
Description: The association with MyoD was monitored at different stages of myogenic conversion (GM and DM for 36 hours) by Western blot using anti-MyoD antibodies. In FIG. 9B, pRb−/−p53±double knock out derived 3T3 cells were transfected with Flag-HDAC1 and myc-MyoD. Nuclear extracts were prepared and subsequently incubated with increasing amounts of either GST-pRbwt or GST-pRbN757F. […] The HDAC1 present in the supernatant of the GST pull-down was immunoprecipitated with anti-Flag conjugated beads, and the associated MyoD was detected by Western blot by using anti-myc antibodies. In FIG. 9C (upper panel), a graph illustrates the ability to activate MCK-luc reporter by MyoD transiently expressed in pRb−/−p53±3T3 fibroblasts, evaluated with or without the co-expression of pRb wt or pRb N757F. In the lower panel of […], levels of endogenous MHC, p21, myogenin, tubulin, and ectopically produced pRb were evaluated by Western blot in pRb−/−p53±3T3 fibroblasts after transient expression of MyoD alone or in conjunction with either pRb wt or pRb N757F. FIG. 9D is a graph illustrating the ability to activate the MCK-luc reporter by MyoD and MEF2C alone, or in combination with E12, in pRb−/−p53±double knock out derived 3T3 cells was evaluated with or without the co-expression of pRb wt or pRb N757F. […] Transcriptional activation was measured by luciferase assay. […]

Row | binding result [1] | binding result [2] | binding result (GST-pRb wt) | Binder
1 | no binding | no binding |  | MyoD (endogenous, in extracts of C2C12 cells; also endogenous MyoD of MD3 and CC42 cells) (other, mouse, UniProt P10085 1-318, looked up, Transcription factor (bHLH)) MELLSPPLRDIDLTGPDGSLCSFETADDFYDDPCFDSPDLRFFEDLDPRLVHMGALLKPEEHAHFPTAVHPGPGAREDEHVRAPSGHHQAGRCLLWACKACKRKTTNADRRKAATMRERRRLSKVNEAFETLKRCTSSNPNQRLPKVEILRNAIRYIEGLQALLRDQDAAPPGAAAFYAPGPLPPGRGSEHYSGDSDASSPRSNCSDGMMDYSGPPSGPRRQNGYDTAYYSEAARESRPGKSAAVSSLDCLSSIVERISTDSPAAPALLLADAPPESPPGPPEGASLSDTEQGTQTPSPDAAPQCPAGSNPNAIYQVL
2 |  |  | no binding | myc-MyoD (expressed from a transfected vector in pRb-/- 3T3 cells) (other, UniProt P10085 1-318, looked up, also called myc-tagged MyoD; not shown: myc tag) MELLSPPLRDIDLTGPDGSLCSFETADDFYDDPCFDSPDLRFFEDLDPRLVHMGALLKPEEHAHFPTAVHPGPGAREDEHVRAPSGHHQAGRCLLWACKACKRKTTNADRRKAATMRERRRLSKVNEAFETLKRCTSSNPNQRLPKVEILRNAIRYIEGLQALLRDQDAAPPGAAAFYAPGPLPPGRGSEHYSGDSDASSPRSNCSDGMMDYSGPPSGPRRQNGYDTAYYSEAARESRPGKSAAVSSLDCLSSIVERISTDSPAAPALLLADAPPESPPGPPEGASLSDTEQGTQTPSPDAAPQCPAGSNPNAIYQVL
